# Measurements: PMC11847629
# Columns and labels:
# [1] = GATA3 Western blot, JEG3; conditions: control: untreated
# [2] = CHX chase, Western blot, JEG3; conditions: control: untreated (respective controls)
# [3] = GATA3 Western blot, primary human trophoblasts; conditions: glycan gained; control: DMSO
# [4] = CHX chase, Western blot, primary human trophoblasts; conditions: glycan gained; control: untreated (respective controls)
# [5] = GATA3 Western blot, JEG3; mRNA equal; conditions: glycan lost; control: WT-G plasmid
# [6] = CHX chase, Western blot, JEG3, hypoxia; conditions: glycan lost; control: WT-G plasmid under 2% O2
# [7] = CHX chase, Western blot, JEG3, normoxia; conditions: glycan lost; control: WT-G plasmid
# [8] = Hypoxic rise of GATA3 protein, Western blot, JEG3; conditions: glycan lost; control: WT-G plasmid, 2% vs 21% O2
substance,measurement,setting,value
GATA3 (GATA binding protein 3): Ac45S (OGT inhibitor),expression_or_secretion,[1]; glycan lost,decreases
same,degradation_or_half_life,[2]; glycan lost,decreases
GATA3 (GATA binding protein 3): TMG (OGA inhibitor),expression_or_secretion,[1]; glycan gained,increases
same,degradation_or_half_life,[2]; glycan gained,increases
same,expression_or_secretion,[3],increases
same,degradation_or_half_life,[4],increases
GATA3 (GATA binding protein 3): T322A-G,"expression_or_secretion, fold_change",[5],decreases
same,degradation_or_half_life,[6],changes
same,degradation_or_half_life,[7],decreases
same,expression_or_secretion,[8],abolishes
